Data published in US20230416363A1 (KADMON, published 2023).
Read-outs that look alike come from different tables or passages of the source.

How the values were obtained:
hPD-1-Fc [1] = molecular target: T1, hPD-1-Fc (human, UniProt Q15116 25-167); test: ELISA, hPD-1-Fc coated
T1 construct: domain: IgV domain; also called human PD-1-Fc; not shown: human IgG1 Fc

[2] = molecular target: T2, human PD-1 expressed on cells (human, UniProt Q15116 25-288); test: flow cytometry, hPD1-293 cells
T2 construct: whole, on cells

hPD-1-his [3] = molecular target: T3, hPD-1-his (human, UniProt Q15116 25-167); test: ELISA, captured hPD-1-his
T3 construct: domain: IgV domain; monomer in solution; biotin-labelled where captured by streptavidin; also called biotin-hPD-1-his

[4] = molecular target: T2, human PD-1 expressed on cells; test: flow cytometry, hPD1-Jurkat cells
[5] = molecular target: T2, human PD-1 expressed on cells; test: cell-based or functional assay
hPD-1-Fc [6] = molecular target: T1, hPD-1-Fc; test: blocking ELISA, hPD-1-Fc to hPD-L1-Fc
[7] = molecular target: T2, human PD-1 expressed on cells; test: flow cytometry, SEB-activated PBMC donor three
hPD-1-his [8] = molecular target: T3, hPD-1-his; test: SPR Biacore T200, PD-1-his immobilised
[9] = molecular target: T2, human PD-1 expressed on cells; test: flow cytometry, SEB-activated PBMC donor one
[10] = molecular target: T2, human PD-1 expressed on cells; test: cell-based or functional assay; remark: listed apart in the source
[11] = molecular target: T2, human PD-1 expressed on cells; test: flow cytometry, hPD1-293 cells; remark: listed apart in the source
hPD-1-Fc [12] = molecular target: T1, hPD-1-Fc; test: SPR Biacore T200, PD-1-Fc immobilised
hPD-1-his [13] = molecular target: T3, hPD-1-his; test: ELISA, biotin-hPD-1-his on streptavidin
hPD-1-Fc [14] = molecular target: T1, hPD-1-Fc; test: ELISA, hPD1-Fc coated
hPD-1-Fc [15] = molecular target: T1, hPD-1-Fc; test: blocking ELISA, hPD-1-Fc to hPD-L1-Fc; remark: listed apart in the source
hPD-1-his [16] = molecular target: T3, hPD-1-his; test: ELISA, hPD-1-his on anti-his

T3 sequence (Q15116 other isoform, or with tags, fused parts or gaps limits assumed): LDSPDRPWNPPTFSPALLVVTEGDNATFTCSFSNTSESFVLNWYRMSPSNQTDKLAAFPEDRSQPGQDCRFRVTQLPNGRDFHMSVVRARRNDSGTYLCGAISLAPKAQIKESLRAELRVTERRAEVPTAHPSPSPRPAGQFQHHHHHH
T1 sequence (Q15116 25-167 limits assumed): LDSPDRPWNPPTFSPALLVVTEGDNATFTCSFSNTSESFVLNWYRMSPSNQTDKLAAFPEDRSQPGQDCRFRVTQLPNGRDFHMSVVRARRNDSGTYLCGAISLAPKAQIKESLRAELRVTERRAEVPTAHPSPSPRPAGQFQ
T2 sequence (Q15116 25-288): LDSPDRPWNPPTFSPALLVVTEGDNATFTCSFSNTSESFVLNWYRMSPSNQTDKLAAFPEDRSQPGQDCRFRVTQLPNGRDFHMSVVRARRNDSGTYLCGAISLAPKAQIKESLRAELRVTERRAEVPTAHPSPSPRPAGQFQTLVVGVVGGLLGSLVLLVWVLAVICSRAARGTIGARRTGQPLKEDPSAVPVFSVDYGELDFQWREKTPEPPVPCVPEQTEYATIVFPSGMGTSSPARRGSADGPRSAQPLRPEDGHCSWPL

Binder	EC50 (hPD-1-Fc [1]) [nM]	OD at 10 nM (hPD-1-Fc [1]) [OD450]	EC50 [2] [nM]	MFI at 5 nM [2] [MFI]	EC50 (hPD-1-his [3]) [nM]	OD at 10 nM (hPD-1-his [3]) [OD450]	EC50 [4] [nM]	MFI at 5 nM [4] [MFI]	EC 50, Promega PD-1/PD-L1 blockade bioassay [5] [µg/mL]	Fold of induction [5] [fold]	IC50 (hPD-1-Fc [6]) [nM]	Inhibition % (3.3 nM) (hPD-1-Fc [6]) [%]	Inhibition % (30 nM) (hPD-1-Fc [6]) [%]	EC50 [7] [nM]	MFI at 100 nM [7] [MFI]	Kd (hPD-1-his [8]) [nM]	EC50 [9] [nM]	MFI at 100 nM [9] [MFI]	EC50 [11] [nM]	MFI at 68 nM [11] [MFI]	also measured
24H9 (antibody, human IgG1, V domains shown) VH: EVQLLESGGGLVQPGGSLRLSCAASGFTFSSYWMSWVRQAPGKGLEWVSAISGSGGSTYYADSVKGRFTISRDNSKNTLYLQMNSLRAEDTAVYYCASSPLQWVDVWGQGTTVTVSS VL: DIQMTQSPSSLSASVGDRVTITCRASQGISSWLAWYQQKPGKAPKLLIYSASSLQSGVPSRFSGSGSGTDFTLTISSLQPEDFATYYCQQANSFPFTFGPGTKVDIK	0.128	1.84	2.69	42.8	1.31	0.69	0.77	80.6	0.823	3.96	2.28	70	92.9	0.913	70.5	13.9	1.37	18.7	58.7	59	EC50, Promega blockade bioassay [10]: 0.855 µg/mL; Fold induction [10]: 4.97 fold; Kd (hPD-1-Fc [12]): 1.46 nM
23A11 (antibody, human IgG1, V domains shown) VH: QVQLVQSGAEVKKPGSSVKVSCKASGYTFTDYSLHWVRQAPGQGLEWMGEVIPMFDTAYYAQTFQGRVTITADESTSTAYMELSSLRSEDTAVYYCAREPFTMVRGGRYYYYGMDVWGQGTTVTVSS VL: DIQMTQSPSSLSASVGDRVTITCRASQNINKNLNWYQQKPGKAPKLLIYDASNLQSGVPSRFSGSGSGTDFTLTISSLQPEDFATYYCQHSETFGQGTKVEIK	0.167	2.04	–	–	1	0.27	–	–	–	–	2.61	54.9	86.6	13.4	46.2	–	19	14.6	–	21.8	–
23H9 (antibody, human IgG1, V domains shown) VH: QVQLVQSGAEVKKPGSSVKVSCKASGGTFSSSVISWVRQAPGQGLEWMGGIIPIFGTANYAQKFQGRVTITADESTSTAYMELSSLRSEDTAVYYCAREGLGCSGGSCYSGYYYGMDVWGQGTTVTVSS VL: not shown	0.151	1.75	0.33	43	0.35	1.25	0.42	120	0.688	4.42	2.04	82.5	94.7	0.829	109	4.91	0.993	26.2	2.53	38.8	EC50 (hPD-1-his [13]): 0.18 nM; OD450 at 10 nM (hPD-1-his [13]): 0.89 OD450; EC50 (hPD-1-Fc [14]): 0.121 nM; OD450 at 10 nM (hPD-1-Fc [14]): 0.916 OD450; IC50 (hPD-1-Fc [15]): 1.27 nM; Inhibition % at 5.6 nM (hPD-1-Fc [15]): 88.6%; Inhibition % at 50 nM (hPD-1-Fc [15]): 90.4%; EC50 (hPD-1-his [16]): 0.238 nM; OD450 at 10 nM (hPD-1-his [16]): 0.406 OD450; EC50, Promega blockade bioassay [10]: 0.551 µg/mL; Fold induction [10]: 5.58 fold; Kd (hPD-1-Fc [12]): 0.928 nM
23A8 (antibody, human IgG1, V domains shown) VH: EVQLLESGGGLVQPGGSLRLSCAASGFTFSSSAMHWVRQAPGKGLEWVSGISGSGSSTYYADSVKGRFTISRDNSKNTLYLQMNSLRAEDTAVYYCARDNNYYYYMDVWGKGTTVTVSS VL: DIQMTQSPSSLSASVGDRVTITCRASQSIGTWLAWYQQKPGKAPKLLIYAASTLRSGVPSRFSGSGSGTDFTLTISSLQPEDFATYYCQQSYSTPYTFGQGTKLEIK	0.135	1.74	–	–	0.523	1.15	–	–	4.73	2.81	1.85	80.5	93.1	1.89	80.3	–	1.51	19.9	0.299	105	–
19B6 (antibody, V domains shown) VH: QVQLVQSGAEVKKPGASVKVSCKASGYTFTGYYMHWVRQAPGQGLEWMGIINPSGGSTSYAQKFQGRVTMTRDTSTSTVYMELSSLRSEDTAVYYCAKTAGYDWLPSGLGMDVWGQGTTVTVSS VL: DIQMTQSPSSLSASVGDRVTITCRASQSINSWLAWYQQKPGKAPKLLIYYASSLQSGVPSRFSGSGSGTDFTLTISSLQPEDFATYYCQQGYSVPLSFGQGTKLEIK	0.168	1.81	–	–	> 100	0.3	–	–	2.13	3.04	2.69	51.9	85.9	10.7	51.2	–	13.6	13.7	–	20.8	–
19B10 (antibody, human IgG1, V domains shown) VH: EVQLLESGGGLVQPGGSLRLSCAASGFTFSSYAMHWVRQAPGKGLEWVSGISNSGGNTYYADSVKGRFTISRDNSKNTLYLQMNSLRAEDTAVYYCARDNYYYYMDVWGKGTTVTVSS VL: DIQMTQSPSSLSASVGDRVTITCRASQSVSTWLAWYQQKPGKAPKLLIYAASNLETGVPSRFSGSGSGTDFTLTISSLQPEDFATYYCQQTYSTPYTFGQGTKLEIK	0.188	1.73	–	–	5.34	0.38	–	–	–	–	28.1	22.9	65.2	104	25.2	–	117	12.4	16	45.1	–
